Results: US20200268855

Molecular target: T1, ALDH1A2-His6 (UniProt O94788)
T1 sequence: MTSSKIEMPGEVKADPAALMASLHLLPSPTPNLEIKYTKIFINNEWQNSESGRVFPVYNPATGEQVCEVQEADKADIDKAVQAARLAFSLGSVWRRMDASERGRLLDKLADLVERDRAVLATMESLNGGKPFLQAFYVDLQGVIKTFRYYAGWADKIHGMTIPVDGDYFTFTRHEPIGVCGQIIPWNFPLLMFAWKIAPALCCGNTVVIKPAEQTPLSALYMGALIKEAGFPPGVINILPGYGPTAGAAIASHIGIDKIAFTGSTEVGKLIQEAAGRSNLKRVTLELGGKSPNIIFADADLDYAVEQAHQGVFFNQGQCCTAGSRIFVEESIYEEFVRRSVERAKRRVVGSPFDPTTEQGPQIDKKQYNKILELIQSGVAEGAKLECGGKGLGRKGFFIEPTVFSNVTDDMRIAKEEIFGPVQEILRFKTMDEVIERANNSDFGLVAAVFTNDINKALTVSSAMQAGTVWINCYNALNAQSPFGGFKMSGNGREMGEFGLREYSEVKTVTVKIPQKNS

human UBE3A protein was tested, and the “ubiquitination of ALDH1A2 in the reconstituted bacterial ubiquitination system (immunoblot)” value was “the ALDH1A2 protein was highly ubiquitinated in the presence of UBE3A protein”.
